Source: PMC9445081, “Structural basis for recognition of N-formyl peptides as pathogen-associated molecular patterns” (Nature Communications, 2022)
Where no end group is shown, it is not given here. The star is where a group is joined. For = O=C*

Experiments:
FPR1 [1] = settings: cited from earlier work
FPR1 [2] = settings: non-formyl MLF versus fMLF; cited from earlier work
FPR1 F291A = molecular target: T1, FPR1 F291A (human, UniProt P21462 1-350, F291A); test: cell-based or functional assay
T1 sequence (looked up): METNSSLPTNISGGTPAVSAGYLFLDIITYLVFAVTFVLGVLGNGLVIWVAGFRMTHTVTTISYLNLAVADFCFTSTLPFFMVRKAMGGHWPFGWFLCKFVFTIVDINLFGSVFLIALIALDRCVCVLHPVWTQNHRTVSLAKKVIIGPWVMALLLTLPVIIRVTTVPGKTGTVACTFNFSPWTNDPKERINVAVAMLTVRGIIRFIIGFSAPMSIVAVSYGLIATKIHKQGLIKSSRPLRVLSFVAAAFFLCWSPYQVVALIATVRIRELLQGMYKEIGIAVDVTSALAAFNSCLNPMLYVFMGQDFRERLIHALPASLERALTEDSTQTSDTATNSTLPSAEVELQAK

FPR1 F102A = molecular target: T2, FPR1 F102A (human, UniProt P21462 1-350, F102A); test: cell-based or functional assay
T2 sequence (looked up): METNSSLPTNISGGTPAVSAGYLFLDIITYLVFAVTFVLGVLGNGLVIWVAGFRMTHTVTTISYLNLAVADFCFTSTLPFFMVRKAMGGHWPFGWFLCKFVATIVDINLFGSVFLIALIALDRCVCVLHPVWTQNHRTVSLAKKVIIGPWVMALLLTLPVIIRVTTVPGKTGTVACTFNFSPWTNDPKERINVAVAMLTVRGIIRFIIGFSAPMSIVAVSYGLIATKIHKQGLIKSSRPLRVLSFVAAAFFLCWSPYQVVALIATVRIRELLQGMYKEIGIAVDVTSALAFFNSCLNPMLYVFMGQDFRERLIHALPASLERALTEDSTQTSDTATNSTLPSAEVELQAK

FPR1 L109A = molecular target: T3, FPR1 L109A (human, UniProt P21462 1-350, L109A); test: cell-based or functional assay
T3 sequence (looked up): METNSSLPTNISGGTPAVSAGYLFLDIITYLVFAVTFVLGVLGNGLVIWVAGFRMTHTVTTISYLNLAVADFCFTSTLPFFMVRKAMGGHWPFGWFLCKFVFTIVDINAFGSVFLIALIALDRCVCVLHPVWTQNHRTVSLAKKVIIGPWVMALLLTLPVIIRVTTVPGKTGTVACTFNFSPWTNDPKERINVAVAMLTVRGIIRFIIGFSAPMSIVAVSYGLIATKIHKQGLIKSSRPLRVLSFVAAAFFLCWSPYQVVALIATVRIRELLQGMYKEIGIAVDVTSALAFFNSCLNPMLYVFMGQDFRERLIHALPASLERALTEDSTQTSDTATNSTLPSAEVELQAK

FPR1 V283A = molecular target: T4, FPR1 V283A (human, UniProt P21462 1-350, V283A); test: cell-based or functional assay
T4 sequence (looked up): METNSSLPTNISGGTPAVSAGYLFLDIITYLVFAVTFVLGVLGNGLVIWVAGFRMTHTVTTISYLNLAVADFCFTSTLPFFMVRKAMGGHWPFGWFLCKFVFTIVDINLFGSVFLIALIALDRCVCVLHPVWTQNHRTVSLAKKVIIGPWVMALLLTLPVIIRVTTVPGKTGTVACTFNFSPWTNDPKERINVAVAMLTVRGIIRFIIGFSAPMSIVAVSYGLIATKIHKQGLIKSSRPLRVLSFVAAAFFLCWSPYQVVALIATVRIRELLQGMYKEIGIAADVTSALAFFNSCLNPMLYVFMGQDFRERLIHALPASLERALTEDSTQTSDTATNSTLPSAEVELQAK

[3] = molecular target: T5, WT FPR1 expressed in HeLa cells (human, UniProt P21462 1-350); test: cell-based or functional assay
T5 sequence (looked up): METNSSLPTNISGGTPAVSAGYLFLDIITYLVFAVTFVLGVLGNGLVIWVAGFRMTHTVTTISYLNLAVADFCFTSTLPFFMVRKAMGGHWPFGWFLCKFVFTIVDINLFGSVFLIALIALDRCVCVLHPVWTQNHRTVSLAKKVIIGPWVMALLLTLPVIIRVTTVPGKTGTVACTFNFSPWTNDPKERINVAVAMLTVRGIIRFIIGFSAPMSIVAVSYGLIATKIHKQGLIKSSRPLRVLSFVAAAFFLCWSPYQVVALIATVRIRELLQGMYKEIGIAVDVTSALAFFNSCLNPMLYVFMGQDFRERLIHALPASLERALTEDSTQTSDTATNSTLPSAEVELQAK

FPR1 F81A = molecular target: T6, FPR1 F81A (human, UniProt P21462 1-350, F81A); test: cell-based or functional assay
T6 sequence (looked up): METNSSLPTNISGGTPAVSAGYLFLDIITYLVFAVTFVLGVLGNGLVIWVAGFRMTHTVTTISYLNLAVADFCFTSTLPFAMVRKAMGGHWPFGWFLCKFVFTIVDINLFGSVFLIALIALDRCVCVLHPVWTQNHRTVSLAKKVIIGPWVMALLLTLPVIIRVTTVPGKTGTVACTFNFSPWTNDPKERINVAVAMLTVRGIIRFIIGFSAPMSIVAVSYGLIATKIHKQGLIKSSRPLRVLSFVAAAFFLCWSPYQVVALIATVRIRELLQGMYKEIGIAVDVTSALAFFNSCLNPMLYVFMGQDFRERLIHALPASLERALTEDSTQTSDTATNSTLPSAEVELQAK

FPR1 F110A = molecular target: T7, FPR1 F110A (human, UniProt P21462 1-350, F110A); test: cell-based or functional assay
T7 sequence (looked up): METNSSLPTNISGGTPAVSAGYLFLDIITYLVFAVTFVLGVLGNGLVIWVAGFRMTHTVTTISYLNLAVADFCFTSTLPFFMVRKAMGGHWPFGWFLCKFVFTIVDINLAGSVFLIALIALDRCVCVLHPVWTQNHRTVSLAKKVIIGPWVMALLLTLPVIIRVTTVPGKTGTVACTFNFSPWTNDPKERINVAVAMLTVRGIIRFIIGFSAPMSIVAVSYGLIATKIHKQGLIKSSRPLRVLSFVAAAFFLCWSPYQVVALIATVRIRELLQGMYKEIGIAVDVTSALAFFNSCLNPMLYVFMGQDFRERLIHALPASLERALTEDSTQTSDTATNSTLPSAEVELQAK

FPR1 T265A = molecular target: T8, FPR1 T265A (human, UniProt P21462 1-350, T265A); test: cell-based or functional assay
T8 sequence (looked up): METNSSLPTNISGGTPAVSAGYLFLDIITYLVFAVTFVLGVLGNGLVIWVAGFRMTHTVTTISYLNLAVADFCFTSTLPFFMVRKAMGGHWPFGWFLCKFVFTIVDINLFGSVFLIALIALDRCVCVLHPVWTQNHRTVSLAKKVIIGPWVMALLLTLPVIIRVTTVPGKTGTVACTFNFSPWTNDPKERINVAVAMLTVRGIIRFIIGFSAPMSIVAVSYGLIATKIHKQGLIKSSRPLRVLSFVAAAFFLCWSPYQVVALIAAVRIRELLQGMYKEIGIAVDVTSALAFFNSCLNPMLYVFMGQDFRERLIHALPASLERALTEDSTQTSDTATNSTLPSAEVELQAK

[4] = molecular target: T9, Gαi (α subunit of the Gi1 heterotrimer) (human, UniProt P63096 1-354); test: cryo-EM structure; settings: both partners purified
T9 construct: Gαi of the Gi1 heterotrimer, human cDNA; The same chain as the first chain of m4; source: Trichoplusia ni Hi5 insect cells (baculovirus), purified as part of the Gi1 heterotrimer (Ni-NTA)
T9 sequence (P63096 whole entry, one chain of several): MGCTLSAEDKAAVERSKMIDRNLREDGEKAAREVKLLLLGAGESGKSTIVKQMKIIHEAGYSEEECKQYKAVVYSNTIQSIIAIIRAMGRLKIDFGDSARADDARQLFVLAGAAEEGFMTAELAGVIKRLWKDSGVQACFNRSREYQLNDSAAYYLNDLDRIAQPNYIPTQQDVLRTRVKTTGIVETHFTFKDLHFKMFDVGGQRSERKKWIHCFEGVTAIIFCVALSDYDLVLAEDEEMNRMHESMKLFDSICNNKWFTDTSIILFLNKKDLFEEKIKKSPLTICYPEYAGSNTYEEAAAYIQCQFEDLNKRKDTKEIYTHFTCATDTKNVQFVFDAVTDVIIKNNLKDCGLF

tBoc-MLF
pharmacological property at FPR1 (FPR1 [1]): antagonist

Met-Leu-Phe [MLF]
orders of magnitude less potent in FPR1 binding (FPR1 [2]): 3 orders of magnitude

B1: fMet-Leu-Phe (fMLF) (peptide)
peptide: For-Met-Leu-Phe
pEC50 of inhibition of forskolin-elevated cAMP, transfected HeLa cells (FPR1 F291A): 8.4 | pEC50 of inhibition of forskolin-elevated cAMP, transfected HeLa cells (FPR1 F102A): 8.5 | pEC50 of inhibition of forskolin-elevated cAMP, transfected HeLa cells (FPR1 L109A): 8.1 | pEC50 of inhibition of forskolin-elevated cAMP, transfected HeLa cells (FPR1 V283A): 8.8 | pEC50 of inhibition of forskolin-elevated cAMP, transfected HeLa cells [3]: 9.1 | pEC50 of inhibition of forskolin-elevated cAMP, transfected HeLa cells (FPR1 F81A): 8.1 | pEC50 of inhibition of forskolin-elevated cAMP, transfected HeLa cells (FPR1 F110A): 8.6 | pEC50 of inhibition of forskolin-elevated cAMP, transfected HeLa cells (FPR1 T265A): 7.8

B2: formyl peptide receptor 1 (FPR1), N-terminal FLAG tag and C-terminal 6 x His tag (receptor, human)
chain: METNSSLPTNISGGTPAVSAGYLFLDIITYLVFAVTFVLGVLGNGLVIWVAGFRMTHTVTTISYLNLAVADFCFTSTLPFFMVRKAMGGHWPFGWFLCKFVFTIVDINLFGSVFLIALIALDRCVCVLHPVWTQNHRTVSLAKKVIIGPWVMALLLTLPVIIRVTTVPGKTGTVACTFNFSPWTNDPKERINVAVAMLTVRGIIRFIIGFSAPMSIVAVSYGLIATKIHKQGLIKSSRPLRVLSFVAAAFFLCWSPYQVVALIATVRIRELLQGMYKEIGIAVDVTSALAFFNSCLNPMLYVFMGQDFRERLIHALPASLERALTEDSTQTSDTATNSTLPSAEVELQAK
notes: formyl peptide receptor 1, Homo sapiens, cDNA Gene ID 2357; Solubilised in DDM/CHS and exchanged to LMNG (later LMNG/GDN/CHS); also called human FPR1; source: Sf9 insect cells (baculovirus), purified (anti-FLAG M1 resin, SEC) in detergent; not shown: FLAG, N-terminal, kept
binding result [4]: binds
